Patent US20200207837A1 (published 2020)

T1: activated KLK8 (human KLK8, C-terminal His tag, pro-KLK8 activated with thermolysin) (UniProt O60259 33-260)
T1 chain: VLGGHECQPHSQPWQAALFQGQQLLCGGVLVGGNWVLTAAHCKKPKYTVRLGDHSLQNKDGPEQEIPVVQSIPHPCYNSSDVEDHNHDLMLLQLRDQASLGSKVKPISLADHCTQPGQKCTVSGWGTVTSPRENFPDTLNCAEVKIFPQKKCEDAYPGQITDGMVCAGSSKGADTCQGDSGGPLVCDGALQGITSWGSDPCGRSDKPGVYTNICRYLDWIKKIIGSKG

T2: activated KLK4 (human KLK4, C-terminal His tag, pro-KLK4 activated with thermolysin) (UniProt Q9Y5K2 31-254)
T2 chain: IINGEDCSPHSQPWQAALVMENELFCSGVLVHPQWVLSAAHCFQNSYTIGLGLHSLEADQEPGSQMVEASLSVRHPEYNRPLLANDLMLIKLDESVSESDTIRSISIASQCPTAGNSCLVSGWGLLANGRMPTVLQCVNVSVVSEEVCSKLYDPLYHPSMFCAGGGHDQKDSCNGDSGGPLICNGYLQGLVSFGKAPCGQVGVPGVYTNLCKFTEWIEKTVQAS

T3: KLK4 biotinylated with EZ-Link NHS-PEG4-Biotin (UniProt Q9Y5K2 31-254, biotinylated with EZ-Link NHS-PEG4-Biotin (sites not given))
T3 chain: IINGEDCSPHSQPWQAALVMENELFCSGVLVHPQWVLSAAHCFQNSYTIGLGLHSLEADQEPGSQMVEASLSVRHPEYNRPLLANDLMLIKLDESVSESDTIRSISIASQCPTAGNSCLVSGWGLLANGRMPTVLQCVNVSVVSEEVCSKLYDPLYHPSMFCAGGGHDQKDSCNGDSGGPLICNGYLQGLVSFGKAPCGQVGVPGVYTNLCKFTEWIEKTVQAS


How the values were obtained:
[1] = biological target: T1, activated KLK8 (human KLK8, C-terminal …); assay: peptide substrate degradation inhibition
[2] = biological target: activated KLK1 (human KLK1, C-terminal His tag, pro-KLK1 activated with thermolysin) (UniProt P06870 25-262); assay: peptide substrate degradation inhibition
Chain of activated KLK1 (human KLK1, C-terminal His tag, pro-KLK1 activated with thermolysin) (P06870 25-262): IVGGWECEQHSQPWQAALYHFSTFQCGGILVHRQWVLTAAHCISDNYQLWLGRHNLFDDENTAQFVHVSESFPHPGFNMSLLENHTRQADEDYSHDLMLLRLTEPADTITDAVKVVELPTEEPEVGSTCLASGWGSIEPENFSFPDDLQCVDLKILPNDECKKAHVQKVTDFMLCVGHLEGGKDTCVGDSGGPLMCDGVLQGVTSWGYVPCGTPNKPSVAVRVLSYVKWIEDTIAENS

[3] = biological target: T2, activated KLK4 (human KLK4, C-terminal …); assay: peptide substrate degradation inhibition
[4] = biological target: T2, activated KLK4 (human KLK4, C-terminal …); assay: peptide substrate degradation inhibition
[5] = biological target: T3, KLK4 biotinylated with EZ-Link …; assay: SPR (Biacore T200)

Binder | IC50 [1] [nM] | IC50 [2] [nM] | IC50 [3] [nM] | Ki [4] [nM] | Kd [5] [nM]
KLK1 inhibitory peptide K10066 (designed binder) GSGMKETAAAKFERQHMDSPDLGTDDDDKAMADIGSANSDPQFGLFSKYRTPNCSVALRDICWWTSEPVCGSDMSTYANECTLCMKIREGGHNIKIIRNGPCGASAAA | > 1000 | 12 | > 1000 | – | –
KLK4/KLK8 inhibitory peptide K41047 (designed binder) GSGMKETAAAKFERQHMDSPDLGTDDDDKAMADIGSANSDPQFGLFSKYRTPNCMRFHKDGCARIYDPVCGSDMSTYANECTLCMKIREGGHNIKIIRNGPCGASAAA | 31.5 | > 1000 | 7.4 | 1.38 | –
KLK4 inhibitory peptide K40003 (designed binder) GSGMKETAAAKFERQHMDSPDLGTDDDDKAMADIGSANSDPQFGLFSKYRTPNCELYVEDVCQRIFKPVCGSDMSTYANECTLCMKIREGGHNIKIIRNGPCGASAAA | > 1000 | > 1000 | 1.8 | 0.2 | 0.0232
KLK4/KLK8 inhibitory peptide K41042 (designed binder) GSGMKETAAAKFERQHMDSPDLGTDDDDKAMADIGSANSDPQFGLFSKYRTPNCSRYRREGCNRMYNPVCGSDMSTYANECTLCMKIREGGHNIKIIRNGPCGASAAA | 17.5 | > 1000 | 15.7 | 2.8 | –
KLK4/KLK8 inhibitory peptide K41021 (designed binder) GSGMKETAAAKFERQHMDSPDLGTDDDDKAMADIGSANSDPQFGLFSKYRTPNCRKHTLDGCARIYDPVCGSDMSTYANECTLCMKIREGGHNIKIIRNGPCGASAAA | 7.5 | > 1000 | 53 | 10.7 | –
KLK4/KLK8 inhibitory peptide K41025 (designed binder) GSGMKETAAAKFERQHMDSPDLGTDDDDKAMADIGSANSDPQFGLFSKYRTPNCSRYKSGGCTRIFDPVCGSDMSTYANECTLCMKIREGGHNIKIIRNGPCGASAAA | 17 | > 1000 | 86 | 16.3 | –
KLK4/KLK8 inhibitory peptide K41043 (designed binder) GSGMKETAAAKFERQHMDSPDLGTDDDDKAMADIGSANSDPQFGLFSKYRTPNCRRYSIHGCNRMYAPVCGSDMSTYANECTLCMKIREGGHNIKIIRNGPCGASAAA | 5.3 | > 1000 | 1.9 | 0.21 | 0.00891
KLK4/KLK8 inhibitory peptide K41041 (designed binder) GSGMKETAAAKFERQHMDSPDLGTDDDDKAMADIGSANSDPQFGLFSKYRTPNCQRYSQWGCTRQLDPVCGSDMSTYANECTLCMKIREGGHNIKIIRNGPCGASAAA | 11.4 | > 1000 | 2.7 | 0.4 | –
KLK4 inhibitory peptide K40005 (designed binder) GSGMKETAAAKFERQHMDSPDLGTDDDDKAMADIGSANSDPQFGLFSKYRTPNCSQQAMGACQRIYKPVCGSDMSTYANECTLCMKIREGGHNIKIIRNGPCGASAAA | > 1000 | > 1000 | 2.2 | 0.21 | –
KLK1 inhibitory peptide K10061 (designed binder) GSGMKETAAAKFERQHMDSPDLGTDDDDKAMADIGSANSDPQFGLFSKYRTPNCARNNIVDCFYYYKPVCGSDMSTYANECTLCMKIREGGHNIKIIRNGPCGASAAA | > 1000 | 13 | > 1000 | – | –
KLK4/KLK8 inhibitory peptide K41026 (designed binder) GSGMKETAAAKFERQHMDSPDLGTDDDDKAMADIGSANSDPQFGLFSKYRTPNCQRYKMRGCNRMYDPVCGSDMSTYANECTLCMKIREGGHNIKIIRNGPCGASAAA | 9.1 | > 1000 | 293 | 69.3 | –
KLK1 inhibitory peptide K10062 (designed binder) GSGMKETAAAKFERQHMDSPDLGTDDDDKAMADIGSANSDPQFGLFSKYRTPNCDIYQVDRCWWASQPVCGSDMSTYANECTLCMKIREGGHNIKIIRNGPCGASAAA | > 1000 | 12 | > 1000 | – | –

The next lines start with the values.

IC50 [1] [nM] | IC50 [2] [nM] | IC50 [3] [nM] | Ki [4] [nM] | Kd [5] [nM] | Binder
114 | > 1000 | 2.3 | 0.32 | – | KLK4/KLK8 inhibitory peptide K41045 (designed binder) GSGMKETAAAKFERQHMDSPDLGTDDDDKAMADIGSANSDPQFGLFSKYRTPNCRKQYWVGCNRMYAPVCGSDMSTYANECTLCMKIREGGHNIKIIRNGPCGASAAA
8 | > 1000 | 293 | 74.6 | – | KLK4/KLK8 inhibitory peptide K41024 (designed binder) GSGMKETAAAKFERQHMDSPDLGTDDDDKAMADIGSANSDPQFGLFSKYRTPNCTRYVVNGCSRVYDPVCGSDMSTYANECTLCMKIREGGHNIKIIRNGPCGASAAA
> 1000 | 20 | > 1000 | – | – | KLK1 inhibitory peptide K10071 (designed binder) GSGMKETAAAKFERQHMDSPDLGTDDDDKAMADIGSANSDPQFGLFSKYRTPNCDQNKYRDCHYYYKPVCGSDMSTYANECTLCMKIREGGHNIKIIRNGPCGASAAA
> 1000 | > 1000 | 1.8 | 0.16 | 0.00208 | KLK4 inhibitory peptide K40001 (designed binder) GSGMKETAAAKFERQHMDSPDLGTDDDDKAMADIGSANSDPQFGLFSKYRTPNCRKYEYGVCQRTYLPVCGSDMSTYANECTLCMKIREGGHNIKIIRNGPCGASAAA
> 1000 | > 1000 | 2.1 | 0.38 | – | KLK4 inhibitory peptide K40004 (designed binder) GSGMKETAAAKFERQHMDSPDLGTDDDDKAMADIGSANSDPQFGLFSKYRTPNCEHAQLGVCQKLYQPVCGSDMSTYANECTLCMKIREGGHNIKIIRNGPCGASAAA
283 | > 1000 | 2 | 0.31 | – | KLK4/KLK8 inhibitory peptide K41046 (designed binder) GSGMKETAAAKFERQHMDSPDLGTDDDDKAMADIGSANSDPQFGLFSKYRTPNCGRYYRGWCFKSLEPVCGSDMSTYANECTLCMKIREGGHNIKIIRNGPCGASAAA
